In general, Kd refers to the free concentration of one partner at which half of the binding sites on the other are occupied at equilibrium, for simple one-to-one binding.

Data set [1] addresses hOGG1 C253A (human, UniProt O15527 1-345, C253A). The data set is described as follows: fluorescence polarisation; reducing; FP at 25°C with 5 nM labelled DNA; EMSA room temp 30 min, 15% native PAGE 0.5x TBE 4°C; interaction buffer 20 mM Tris-HCl pH 7.6, 200 mM NaCl (Fig. S12); reducing (5 mM DTT in EMSA) or oxidising (pre-oxidised hOGG1). The conditions noted are these: protein: recombinant; tags: N-terminal His6 (removed where required); label: 5' AF647 (FP) or Cy3 (EMSA) on bottom strand; blunt. In general terms: In fluorescence polarisation assays a small probe gives low polarisation when free and higher when bound to something large.

Data set [2] concerns the target T1, hOGG1 K249Q (human, UniProt O15527 1-345, K249Q). The data set is described as above. The conditions noted are these: protein: recombinant; tags: N-terminal His6 (removed where required); label: 5' AF647 (FP) or Cy3 (EMSA) on bottom strand; blunt. (Mobility shift assays separate free from complexed probe on a gel.)
The target in data set [3] is T2, hOGG1 C28A (human, UniProt O15527 1-345, C28A). Described as above. Conditions: protein: recombinant; tags: N-terminal His6 (removed where required); label: 5' AF647 (FP) or Cy3 (EMSA) on bottom strand; blunt.
For data set [4], the target named is T1, hOGG1 K249Q. Put plainly: fluorescence polarisation; oxidising; FP at 25°C with 5 nM labelled DNA; EMSA room temp 30 min, 15% native PAGE 0.5x TBE 4°C; interaction buffer 20 mM Tris-HCl pH 7.6, 200 mM NaCl (Fig. S12); reducing (5 mM DTT in EMSA) or oxidising (pre-oxidised hOGG1). Conditions: protein: recombinant; tags: N-terminal His6 (removed where required); label: 5' AF647 (FP) or Cy3 (EMSA) on bottom strand; blunt.

For data set [5], the target named is T2, hOGG1 C28A. The data set is described as above. The conditions noted are these: protein: recombinant; tags: N-terminal His6 (removed where required); label: 5' AF647 (FP) or Cy3 (EMSA) on bottom strand; blunt.
For data set [6], the target named is T3, hOGG1 wild type;c-Myc (human;human?, UniProt O15527;P01106 1-345;16-454, |). Put plainly: EMSA; 300 nM each; oxidising and reducing (less stable reducing); FP at 25°C with 5 nM labelled DNA; EMSA room temp 30 min, 15% native PAGE 0.5x TBE 4°C; interaction buffer 20 mM Tris-HCl pH 7.6, 200 mM NaCl (Fig. S12); reducing (5 mM DTT in EMSA) or oxidising (pre-oxidised hOGG1). Conditions: protein: recombinant;commercial; tags: N-terminal His6 (removed by protease where required);GST; quantum dot in E-box AFM; label: 5' AF647 (FP) or Cy3 (EMSA) on bottom strand; blunt.

In data set [7] the target is T3, hOGG1 wild type;c-Myc. Put plainly: EMSA; less stable under reducing conditions; FP at 25°C with 5 nM labelled DNA; EMSA room temp 30 min, 15% native PAGE 0.5x TBE 4°C; interaction buffer 20 mM Tris-HCl pH 7.6, 200 mM NaCl (Fig. S12); reducing (5 mM DTT in EMSA) or oxidising (pre-oxidised hOGG1). Conditions: protein: recombinant;commercial; tags: N-terminal His6 (removed by protease where required);GST; quantum dot in E-box AFM; label: 5' AF647 (FP) or Cy3 (EMSA) on bottom strand; blunt.

T3 sequence (O15527 whole entry, chain 1 of 2): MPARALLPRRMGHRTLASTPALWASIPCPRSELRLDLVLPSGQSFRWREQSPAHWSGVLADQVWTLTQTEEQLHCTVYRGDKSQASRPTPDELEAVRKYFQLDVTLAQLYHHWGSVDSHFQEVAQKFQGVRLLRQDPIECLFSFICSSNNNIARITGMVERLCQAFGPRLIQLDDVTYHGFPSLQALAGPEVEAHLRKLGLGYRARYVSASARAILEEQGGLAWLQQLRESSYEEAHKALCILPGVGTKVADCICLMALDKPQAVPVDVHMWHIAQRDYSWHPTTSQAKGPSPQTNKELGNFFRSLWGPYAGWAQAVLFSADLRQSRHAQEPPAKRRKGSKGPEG
T3 sequence (P01106 16-454, chain 2 of 2): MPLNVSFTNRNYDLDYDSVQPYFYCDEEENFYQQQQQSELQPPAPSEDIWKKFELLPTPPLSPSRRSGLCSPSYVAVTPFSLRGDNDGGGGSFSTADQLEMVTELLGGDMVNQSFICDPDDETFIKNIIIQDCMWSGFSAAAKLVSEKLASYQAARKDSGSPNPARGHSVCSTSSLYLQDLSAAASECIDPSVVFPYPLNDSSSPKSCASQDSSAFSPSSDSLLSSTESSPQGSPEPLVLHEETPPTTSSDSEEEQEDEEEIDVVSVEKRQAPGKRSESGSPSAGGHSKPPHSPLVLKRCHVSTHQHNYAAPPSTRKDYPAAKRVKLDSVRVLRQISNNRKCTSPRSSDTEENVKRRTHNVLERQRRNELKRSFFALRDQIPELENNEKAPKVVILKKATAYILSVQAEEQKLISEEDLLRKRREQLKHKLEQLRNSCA
T2 sequence (O15527 whole entry C28A): as the sequence (O15527 whole entry, chain 1 of 2) above, with C28A counted along it
T1 sequence (O15527 whole entry K249Q): as the sequence (O15527 whole entry, chain 1 of 2) above, with K249Q counted along it
Sequence of hOGG1 C253A (O15527 whole entry C253A): as the sequence (O15527 whole entry, chain 1 of 2) above, with C253A counted along it

B1: oxoG 48 bp (EMSA/FP) (dsDNA)
DNA 1: GCATGCCTCGAGTCTAGAGGTACCAGATCTGATCCTCTAGAGTCGACC
DNA 2: GGTCGACTCTAGAGGATCAGATCTGGTACCTCTAGACTCGAGGCATGC
modifications: 8-oxoguanine at position 10 of strand 1 (written G)
For the molecule B1, the Kd in data set [1] was found to be 99 ± 24 nM; in data set [2], 42 ± 3 nM; in data set [3] it was 65 ± 8 nM; in data set [4] it was 95 ± 5 nM; in data set [5], 61 ± 11 nM. The binding result in data set [6] is reported as “binds”.

B2: undamaged (nsp) 48 bp (dsDNA)
DNA 1: GCATGCCTCGAGTCTAGAGGTACCAGATCTGATCCTCTAGAGTCGACC
DNA 2: GGTCGACTCTAGAGGATCAGATCTGGTACCTCTAGACTCGAGGCATGC
Take B2: the binding result in data set [7] is reported as “binds”.

These data come from PMC9561264, “Direct hOGG1-Myc interactions inhibit hOGG1 catalytic activity and recruit Myc to its promoters under oxidative stress”.
